Substrate in this series: Nc1nc2c(ncn2[C@@H]2O[C@H](COP(=O)(O)OP(=O)(O)OP(=O)(O)O)[C@@H](O)[C@H]2O)c(=O)[nH]1
As to the kind of experiment: Malachite green phosphate release, Michaelis-Menten fit. Format: biochemical, Sulfolobus acidocaldarius. The note with it: 65 °C, 0-500 µM GTP, 50 mM Tris pH 8.0, 150 mM NaCl, 10 mM MgCl2, 10 µM SaGPN.

What is called Km is the concentration of substrate that gives half-maximal velocity.

B1: SaGPN (Sulfolobus acidocaldarius DSM 639) (protein)
chain: MYFIFVLGTAGSGKTTLVKALQDYLLNNELDTAIINLDPAVEVLPYKPDIDAREYVDVYDVMNKYELGPNSSLVISVDLLLTKAKELKEDLNQLQANYVLVDTPGQIELFAYRDTGKILSSFISEGSKSVSVFLFDSYLSKDPKSFLSLFLLSSSIKFRIDMPQISVLSKVDLLSSSELERMRSWIEDGSIIDELGSIDEYSFELVKTIVENLESFPIPVSSTNFSGLDQLYAEVQKVLAGGEDFETEEPNPRL
notes: E. coli BL21(DE3) Rosetta; Y2-A240 built, 14 C-terminal residues disordered
On to B1, for which the Michaelis constant (Km) stood at 40.48 µM.
